Reference: the nanobody polyreactivity screen of Harvey et al. (2022)

Assay: yeast display, Sf9 membrane polyspecificity reagent, FACS + sequencing; frameworks hold sequencing errors
How it was run: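 A nanobody's polyreactivity label depends on the gate it was sorted from. Yeast display cells were stained with 10% biotinylated, detergent-solubilized Sf9 membrane reagent for 1 hour at 4 °C, enriched on streptavidin microbeads and sorted by FACS. The low and high (top ~1%) gates were set on anti-HA fluorescence for expression and streptavidin fluorescence for reagent binding.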

**Q.** For “QVQLVESGGGLVQAGGSLRLSCAASGGTFYVNDMGWYRQAPGKERELVATITYSGTSTYYADSVKGRFTISRDNAKNTVYLQMNSLKAEDTAVYYCATDVLLYFEPVNLDYWGQGTQVTVSS”, which “polyreactivity (PSR sort gate)” value is on record?
**A.** The value was “low polyreactivity”.

**Q.** Which “polyreactivity (PSR sort gate)” value does the source give for “QVQLVESGGGLVQAGGSLRLSCAASGGTFYYYAMGWYRQPPGKERELGAAITGTGGRTYYADSVKGRFTISRDNAKNTVSLQMNSLKPEDTAVYYCATDALYGSGYDYWGQGTQVTVSS” here?
**A.** Its value is “high polyreactivity”.

**Q.** For “QVQLVESGGGLVQAGGSLRLSCAASGGTIAYNAMGWYRQAPWKERELVAAISSSGGRTYYADSVKGRFTITRDNAKNTVYLQMNRLKPEDTAVYYCATPVTNGFDYWGQGTQVTVSS”, which “polyreactivity (PSR sort gate)” value is on record?
**A.** The value was “high polyreactivity”.

**Q.** With “QVQLVESGGGLVQAGGSLRLSCAASGGTILLYAMGWYRQAPGKERELVAGINSGGSTYYADSVKGRFTISRDNAKNTVYLQMNSLKPEDTAVYYCNARSTRYGGDYWGQGTQVTVSS” as the sequence, how does the “polyreactivity (PSR sort gate)” value read?
**A.** The value was “low polyreactivity”.

**Q.** For “QVQLVESGGGLVQAGGSLRLSCAASGGTIVWNAMGWYRQAPGKEREFVAAITSSGGSTYYADSVKGRFTISRDNEKNTVYLQMNSLKPEDTAVYYCNVDTHSSYEFNSWGQGTQVTVSS”, which “polyreactivity (PSR sort gate)” value is on record?
**A.** Its value is “low polyreactivity”.

**Q.** For “QVQLVESGGGLVQAGGSLRLSCAASGGTLGTYAMGWYRQAPGKERELVASIDSGDSTYYADSVKGRFTISRDNAKNTVYLQMNSLKPEDTAVYYCAAAYFRRYTTTWYGYEYWGQGTQVTVSS”, which “polyreactivity (PSR sort gate)” value is on record?
**A.** Its value is “low polyreactivity”.

**Q.** For “QVQLVESGGGLVQAGGSLRLSCAASGGTLKYYAMGLYRQAPGKERELVATISSRGGSTYYADSVKGRFTISRDNAKNTVYLQMNSLKPEDTAVYYCARRYWVQSRYPEMDYWGQGTQVTVSS”, which “polyreactivity (PSR sort gate)” value is on record?
**A.** The value was “high polyreactivity”.

**Q.** With “QVQLVESGGGLVQAGGSLRLSCAASGGTLWVNTMGWYRQAPGKERELVAAISRRGGSTYYADSVKGRFTISRDNAKNTVYLQKNSLKPEDTAVYYCAKGYSSHYWWAYDSWGQGTQVTVSS” as the sequence, how does the “polyreactivity (PSR sort gate)” value read?
**A.** The value was “high polyreactivity”.

**Q.** For “QVQLVESGGGLVQAGGSLRLSCAASGHIFFYYTMGWYRPAPGKERELVAGITIGGSTNYADSVKGRFTISRDNAKNTVYLQMNSLKPEDTAVYYCNVVKYVYIYSYWEYYYWGQGTQVTVSS”, which “polyreactivity (PSR sort gate)” value is on record?
**A.** The value was “low polyreactivity”.

**Q.** With “QVQLVESGGGLVQAGGSLRLSCAASGHIFFYYTMGWYRQAPGKERELVAGITIGGSTNYADSVKGRFTISRDNAKNTVYLQMNSLKPEVTAVYYCARTVYGARSYDYWGQCTQVTVSS” as the sequence, how does the “polyreactivity (PSR sort gate)” value read?
**A.** Its value is “low polyreactivity”.

**Q.** For “QVQLVESGGGLVQAGGSLRLSCAASGHTFAYNAMGWYRQAPGKEREFVAAITWSTDNTYYADSVKGRFTISRDNAKNTVYLQMNTLKPEDTAVYYCAVDVYFYYRHYGYWGQGTQVTVSS”, which “polyreactivity (PSR sort gate)” value is on record?
**A.** Its value is “low polyreactivity”.

**Q.** For “QVQLVESGGGLVQAGGSLRLSCAASGIFASYAMGWYRQAPGKERELVADITWRGGNTFYADSVKGRFTISRDNAKNTVYLQMNSLKPEDTAVYYCAADYRPYLRYTVRGYGYWGQGTKVTVSS”, which “polyreactivity (PSR sort gate)” value is on record?
**A.** Its value is “high polyreactivity”.

**Q.** For “QVQLVESGGGLVQAGGSLRLSCAASGIFFGGYYLGWYRQAPATEMELVAGIRSGGSTYYADSVKGRFTISRDNAKNTVYLQMNSLKPEDTAVYYCAKPYYWGDYSQSDSDYWGQGTQVTVSS”, which “polyreactivity (PSR sort gate)” value is on record?
**A.** The value was “low polyreactivity”.

**Q.** Which “polyreactivity (PSR sort gate)” value does the source give for “QVQLVESGGGLVQAGGSLRLSCAASGIFGWYAMGWYRQAPGKEREFVATINWSGGRTYYADSVKGRFTISRDNAKNTVYLQMNSLKPEDTAVYYCAAENYASEYDYWGQGTQVTVSS” here?
**A.** Its value is “low polyreactivity”.

**Q.** For “QVQLVESGGGLVQAGGSLRLSCAASGIFSIYAMGRYRQAPGKERELVAAITSGGGRTYYADSVKGRFTISRDNAKNTVYLQMNSLKPEDTAVYYCARVQRGDYDYWGQGTQVTVTS”, which “polyreactivity (PSR sort gate)” value is on record?
**A.** The value was “high polyreactivity”.

**Q.** For “QVQLVESGGGLVQAGGSLRLSCAASGIFSRYAIGWYRQAPGKERELVAAISSGDSTNYADSVKGRFTISRDNAKNTVYLQMNSLKPEDTAVYYCATERSHLATGQGYYYVQTFYYWGQGTQVTVSS”, which “polyreactivity (PSR sort gate)” value is on record?
**A.** The value was “low polyreactivity”.

**Q.** With “QVQLVESGGGLVQAGGSLRLSCAASGIFSRYAMGWYRQAPGKERELVAAISSGGSTYYADSVKGRFTISRDNAKNTVYLQMNSLKPEDTAVYYCAVKQRDKFAGGRNDYWGQGTQVTVSS” as the sequence, how does the “polyreactivity (PSR sort gate)” value read?
**A.** Its value is “high polyreactivity”.

**Q.** Which “polyreactivity (PSR sort gate)” value does the source give for “QVQLVESGGGLVQAGGSLRLSCAASGIFTYNAMGWYRQAPGKERELVASITRGGSTNYADSVKGRFTISLDNAKNTVYLQRNSLKPEDTAVYYCAARVRVYSGWLYNYWGQGTQVTVSS” here?
**A.** Its value is “high polyreactivity”.

**Q.** Which “polyreactivity (PSR sort gate)” value does the source give for “QVQLVESGGGLVQAGGSLRLSCAASGIFYRNAMGWYRQAPGKERELVAAISWSGGSTYYADSVKGRFTISRDNAKNSVYLQMNSLKPEDTAFYYCAAVGGRYPSNVVGYYYWGQGTQVTVSS” here?
**A.** Its value is “high polyreactivity”.

**Q.** With “QVQLVESGGGLVQAGGSLRLSCAASGIFYYNAMGWNIQAPGKERELVAAISYSGGRTYYADSVKGRFTISRDNAKNTVYLQMNSLKPEDTAVYYCNAAARYGRLGGDYWGQGTQVTVSS” as the sequence, how does the “polyreactivity (PSR sort gate)” value read?
**A.** Its value is “high polyreactivity”.

**Q.** With “QVQLVESGGGLVQAGGSLRLSCAASGIGHNAMGWYRQAPGKERELVAAISSSGGRTYYADSVKGRFTISRDNAKNTVYLQMNSLKPEDTAVYYCARRAVYGIFDYWGQGTQVTVSS” as the sequence, how does the “polyreactivity (PSR sort gate)” value read?
**A.** The value was “high polyreactivity”.

**Q.** With “QVQLVESGGGLVQAGGSLRLSCAASGIIFAANAMGWYRQAPGKERELVAAISWSGTSTYYADSVKGRFTISRDNAKNTVYLQMNSLNPEDTAVYYCAVDYYLWSGYSYLYEFEYWGQGTQVTVSS” as the sequence, how does the “polyreactivity (PSR sort gate)” value read?
**A.** The value was “high polyreactivity”.

**Q.** With “QVQLVESGGGLVQAGGSLRLSCAASGIIFAANTMGWYRQAPGKDREFVAAISKRGGTTYYADSVKGRFTISRDNAKNTVYLQMNSLKPEDSAVYYCNRRNGWSRGEYWGQGTQVTVSS” as the sequence, how does the “polyreactivity (PSR sort gate)” value read?
**A.** The value was “high polyreactivity”.

**Q.** With “QVQLVESGGGLVQAGGSLRLSCAASGIIFAAYVMGWYRQAPGKERELVAAISKSGGRTYYADSVKGRFTISRDNAKNTVYLQMNSLKREDTAVYYCAASYTYYSIGLGTDVRYGYWGEGTQVTVSS” as the sequence, how does the “polyreactivity (PSR sort gate)” value read?
**A.** The value was “high polyreactivity”.

**Q.** For “QVQLVESGGGLVQAGGSLRLSCAASGIIFAGNAMGWYRQAPGKERELVAAITRSTGSTYYADSVKGRFTISRDNAKNTVYLLMNSLKPEDTEVYYCNAGHFAHHHGYYRSKYDYWGQGTQVTVSS”, which “polyreactivity (PSR sort gate)” value is on record?
**A.** Its value is “low polyreactivity”.

**Q.** For “QVQLVESGGGLVQAGGSLRLSCAASGIIFASYPMGWYRQAPGKESELVADINVTGGTTYYADTVKGRFTISRDNAKNTVYLQMNSLKPEDTAVYYCAARQSIFYSWTGVEYYYWGQGTQVTVSS”, which “polyreactivity (PSR sort gate)” value is on record?
**A.** Its value is “low polyreactivity”.

**Q.** For “QVQLVESGGGLVQAGGSLRLSCAASGIIFAYNAMGWYRQAPGKERELVAAISVIAGTTYYADSVKGRFTISRDNAKNTVYLQMNSLKPEDTAVYYCAVDSVQYGGGYERLHELYYWGQGTQVTVSS”, which “polyreactivity (PSR sort gate)” value is on record?
**A.** The value was “low polyreactivity”.

**Q.** For “QVQLVESGGGLVQAGGSLRLSCAASGIIFAYNAMGWYRQAPGKERELVATITDSGGSTSYADSVKGRFTISRDNAKNTVYLQMNSLKPEDTAVYYCAVLPVYWYWRNYVYLSGYDYWGQGTQVTVSS”, which “polyreactivity (PSR sort gate)” value is on record?
**A.** The value was “low polyreactivity”.

**Q.** With “QVQLVESGGGLVQAGGSLRLSCAASGIIFAYNAMGWYRQAPGKEWELVAGITRNDGSTNYADSVKGRFTISRYNAMNTVYLQMNSLKPEDTAVYYCATGGWRWQRNPSYDYWGQGNQVTVSS” as the sequence, how does the “polyreactivity (PSR sort gate)” value read?
**A.** Its value is “low polyreactivity”.

**Q.** For “QVQLVESGGGLVQAGGSLRLSCAASGIIFAYYAMGWYRQAPGKERELVAAISWRGGSTYYADSVKGRFTISRDYAKNTVYLQMNSLKPEDTAVYYCAAAYLKKPYDYWGQGTQVTVSS”, which “polyreactivity (PSR sort gate)” value is on record?
**A.** Its value is “high polyreactivity”.
